From patent US20240084003A1 (SIMCERE ZAIMING PHARMACEUTICAL, published 2024)
Substitutions are numbered along the chain they refer to.

T1: monkey CD22 protein (ACROBiosystems, catalog number SI2-R52Ha) (monkey, UniProt F6W485 20-688)
T1 construct: commercial protein; also called monkey CD22-ECD; monkey CD22-ECD-His
T1 sequence: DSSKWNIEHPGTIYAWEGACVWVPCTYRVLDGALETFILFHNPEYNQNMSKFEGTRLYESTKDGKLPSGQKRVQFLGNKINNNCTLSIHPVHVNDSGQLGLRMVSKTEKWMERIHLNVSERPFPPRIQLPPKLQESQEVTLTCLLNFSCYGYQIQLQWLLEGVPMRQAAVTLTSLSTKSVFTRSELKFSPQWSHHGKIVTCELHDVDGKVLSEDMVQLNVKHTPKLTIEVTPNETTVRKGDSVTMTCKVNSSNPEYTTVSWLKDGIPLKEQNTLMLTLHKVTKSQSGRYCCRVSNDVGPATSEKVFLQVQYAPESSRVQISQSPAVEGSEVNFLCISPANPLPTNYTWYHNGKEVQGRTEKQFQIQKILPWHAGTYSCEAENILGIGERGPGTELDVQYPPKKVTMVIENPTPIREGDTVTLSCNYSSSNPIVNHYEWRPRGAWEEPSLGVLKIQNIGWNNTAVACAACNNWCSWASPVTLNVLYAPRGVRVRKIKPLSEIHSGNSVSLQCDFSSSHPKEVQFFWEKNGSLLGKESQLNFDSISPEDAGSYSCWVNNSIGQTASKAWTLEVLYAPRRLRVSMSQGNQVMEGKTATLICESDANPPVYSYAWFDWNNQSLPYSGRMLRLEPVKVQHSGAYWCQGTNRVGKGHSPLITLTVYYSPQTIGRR

B1: F2.205.9 (antibody, human IgG1, lambda, V domains shown)
VH: QVTLKESGPGILQPSQTLSLTCSFSGFSLSTSGMGVGWIRQPSGKGLEWLAHIWWDDDEYYNPALKSRLTISKDTSKNQVFLKIANVDTADTATYYCARISIPYGYYDWFFDVWGTGTTVTVSA
VL: QAVVTQESALTTSPGETVTLTCRSSTGAVTTRNYANWVQEKPDHLFTGLIGGTNNRAPGVPARFSGSLIGDKAALTITGAQTEDEAIYFCALWYSNHFIFGSGTKVTVLG
notes: human-murine chimeric IgG1 lambda; VL name legible
B2: F2.151.13 (antibody, human IgG1, lambda, V domains shown)
VH: QVHLQQPGTELMKPGASVKLSCKATGYTFRDYWLEWVKQRPGHGLEWIGEILPGSGNAYYNEKFKGKATFTADTSSNTAYMQLSSLTTEDSAIYYCARVYSNWYFDAWGKGTTVTVSS
VL: B1 VL with R32S, R56Q, T78S, Y94F, F98W, I99V, S102G, V106L
notes: human-murine chimeric IgG1 lambda
B3: F2.70.2 (antibody, human IgG1, lambda, V domains shown)
VH: EVQLVESGGGLVKPGGSLKLSCAASGFTFSDYGMNWFRQAPEKGLEWVAYISRGSHTIYYADTVKGRFTISRDNAKNTLFLQMTSLRSNDTAMYYCVRMAGYYAMDYWGQGTSVTVSS
VL: QLVLTQSSSASFSLGASAKLTCTLSSQHSSYIIEWYQQQPLKPPKYVMELKKDGSHSTGDGIPDRFSGSSSGADRYLSISNIQPEDEAIYICGVGDTIKEQFVYVFGGGTKVTVLG
notes: as for B2
B4: F2.173.9 (antibody, human IgG1, lambda, V domains shown)
VH: EVQLVESGGDLVKPGESLKLSCEASGFTFSNYAMSWVRQTPDRRLEWVATISSIGSFTYYSDSVKGRFTISRDNVKSTLHLQMNNLKSGDTAIYFCARLGVYFDSWGQGTTLTVSS
VL: B3 VL with S30T, I32T, L41H, Y46F, L50I, S57Y, A88T, G95S, T97M, E100D
notes: as for B2
B5: F2.180.16 (antibody, human IgG1, lambda, V domains shown)
VH: EVKLVESGGGLVLPGGSLKISCAASGFTFSDYYMYWIRQTPDKRLEWVAYISNTGYSTFYPDSVKGRFTVSRDNAKNTLYLQMSRLQSEDTAMYYCARHGILYAMDYWGQGTSVTVSS
VL: B3 VL with L2P, H28Y, S30T, I32T, E34G, K52H, H56R, S57H, I89T, V103M
notes: as for B2
B6: F2.104.10 (antibody, human IgG1, lambda, V domains shown)
VH: B3 VH with L11F, K76E, V114L
VL: B3 VL with L50V, P84S
notes: as for B2
B7: HA22-hIgG1 (antibody, V domains shown)
VH: EVQLVESGGGLVKPGGSLKLSCAASGFAFSIYDMSWVRQTPEKCLEWVAYISSGGGTTYYPDTVKGRFTISRDNAKNTLYLQMSSLKSEDTAMYYCARHSGYGTHWGVLFAYWGQGTLVTVSA
VL: DIQMTQTTSSLSASLGDRVTISCRASQDISNYLNWYQQKPDGTVKLLIYYTSILHSGVPSRFSGSGSGTDYSLTISNLEQEDFATYFCQQGNTLPWTFGCGTKLEIKR
B8: F2.121.9 (antibody, human IgG1, lambda, V domains shown)
VH: EVQLVESGGGLVKPGGSLKLSCAASGFTFSDYVMSWIRQTPEKRLEWVATISDAGSYTFYPDNLKGRFTISRDNAKNNLYLQMNHLTSEDTAFYYCAIIYFGNYGGYWGQGTLVTVSV
VL: QAVVTQESALTTSPGGTVVLTCRSNTGAVTTSNYANWVQEKPDHLFTGLIGGTSNRAPGVPVRFSGSLIGDKAALTITGAQTEDDAMYFCALWYSTHWVFGGGTKLTVLG
notes: as for B2
B9: F2.55.1 (antibody, human IgG1, lambda, V domains shown)
VH: QVTLKESGPGILQPSQTLSLTCSFSGFSLSTFPLGVGWIRQPSGKGLEWLAHVWWNDDDYYNPALKSRLTISKDTSNTRVFLSVASVDTAETATYYCARLNWDRWYFDVWGTGTTVTVSS
VL: QLVLTQSSSASFSLGASAKLTCTLSSQHSAYTVEWYQQQPLKPPKYVMELKKDGSHSTGDGIPDRFSGSSSGADRYLSISNIQPEDEAIYICGVGDTVKEQFVFGGGTKVTVLG
notes: as for B1
B10: F2.343.16 (antibody, human IgG1, lambda, V domains shown)
VH: QVQLKQSGPGLVQPSQSLSITCTVSGFSLTGYGVQWVRQSPGKGLEWLGVIWGGGGTDYNAAFISRLNIIKDNSKSQVFFKMNSLQADDTAIYYCARYSKYGHFDVWGTGTAVTVSS
VL: QAVVTQESALTTSPGETVTLTCRSSTGAVTTSNYANWVQEKPDHLFTGLIGGTYNRVPGVPARFSGSLIGDKAALTITGAQTEDEAIYFCALWYSNHFWVFGGGTKLTVLG
notes: as for B1

Columns and labels:
[1] = biological target: T1, monkey CD22 protein (ACROBiosystems, …); test: ELISA, coated monkey CD22 protein, antibody 10 nM
Procedure, shortened: (§1)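 Coat 2 μg/mL CD22 in PBS, overnight 4° C; block PBS/2% BSA 2 h RT. Ab 2 h 37° C; HRP anti-species secondary 2 h 37° C. TMB 30 min RT, stop 1.0 N HCl.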

[2] = biological target: T1, monkey CD22 protein (ACROBiosystems, …); test: ELISA, coated monkey CD22 protein, antibody 0.1 nM
Procedure, shortened: as §1

[3] = biological target: T1, monkey CD22 protein (ACROBiosystems, …); test: ELISA, coated monkey CD22 protein, antibody 100 nM
Procedure, shortened: as §1

[4] = biological target: T1, monkey CD22 protein (ACROBiosystems, …); test: ELISA, coated monkey CD22 protein, antibody 0.01 nM
Procedure, shortened: as §1

[5] = biological target: T2, CD22 on cynomolgus monkey peripheral blood B cells (cynomolgus monkey (Macaca fascicularis)); test: FACS, cynomolgus PBMC, CD20+ B cells, antibody 1 nM
T2 construct: whole, on cells; also called cynomolgus monkey B cells
Procedure, shortened: (§2)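 Binding is expressed as the proportion of CD20-positive B cells that became APC-positive after indirect labelling. Cells were cyno PBMC exposed to the antibody for 1 h at RT, then to anti-human Fc secondary for 30 min.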

[6] = biological target: T1, monkey CD22 protein (ACROBiosystems, …); test: ELISA, coated monkey CD22 protein, antibody 0.001 nM
Procedure, shortened: as §1

[7] = biological target: T2, CD22 on cynomolgus monkey peripheral …; test: FACS, cynomolgus PBMC, CD20+ B cells, antibody 10 nM
Procedure, shortened: as §2

[8] = biological target: T1, monkey CD22 protein (ACROBiosystems, …); test: ELISA, coated monkey CD22 protein, antibody 0.0001 nM
Procedure, shortened: as §1

[9] = biological target: T2, CD22 on cynomolgus monkey peripheral …; test: FACS, cynomolgus PBMC, CD20+ B cells, antibody 100 nM
Procedure, shortened: as §2

[10] = biological target: T1, monkey CD22 protein (ACROBiosystems, …); test: ELISA, coated monkey CD22 protein, antibody 0.00001 nM
Procedure, shortened: as §1

Binder | OD450 [1] [OD450] | OD450 [2] [OD450] | OD450 [3] [OD450] | OD450 [4] [OD450] | Proportion of chimeric antibody positive cells to B cells (%) [5] [%] | OD450 [6] [OD450] | Proportion of chimeric antibody positive cells to B cells (%) [7] [%] | OD450 [8] [OD450] | Proportion of chimeric antibody positive cells to B cells (%) [9] [%] | OD450 [10] [OD450]
B1 | 2.28 | 2.21 | 2.33 | 1.78 | 40 | 0.63 | 41 | 0.16 | 46 | 0.08
B2 | 1.89 | 1.6 | 2.77 | 0.94 | 38 | 0.27 | 48 | 0.1 | 60 | 0.07
B3 | 0.08 | 0.06 | 0.11 | 0.06 | 20 | 0.07 | 20 | 0.06 | 34 | 0.06
B4 | 1.12 | 1.25 | 1.18 | 0.38 | 19 | 0.12 | 43 | 0.06 | 71 | 0.06
B5 | 0.06 | 0.05 | 0.06 | 0.05 | 16 | 0.05 | 20 | 0.05 | 23 | 0.05
B6 | 0.07 | 0.05 | 0.07 | 0.06 | 19 | 0.05 | 21 | 0.05 | 26 | 0.05
B7 | 2.41 | 2.24 | 2.2 | 1.54 | 33 | 0.47 | 89 | 0.14 | 93 | 0.08
B8 | 0.56 | 0.34 | 0.72 | 0.13 | 27 | 0.06 | 56 | 0.05 | 64 | 0.05
B9 | 2 | 1.73 | 1.91 | 0.85 | 22 | 0.18 | 28 | 0.07 | 66 | 0.06
B10 | 0.06 | 0.05 | 0.08 | 0.05 | 21 | 0.05 | 21 | 0.05 | 22 | 0.05
